These results are taken from US20250025478A1 (published 2025).

One assay has as its target T1, RNF213-TurboID (Homo sapiens (Human), UniProt Q63HN8 1-5207).
T1 construct: Recombined into HeLa FlpIn-TRex RNF213-KO cells; proximity-labelling bait; also called C-Turbo; 3×-FLAG-RNF213-TurboID; not shown: 3×-FLAG tag; TurboID biotin ligase at the C-terminus
Kind of assay: TurboID proximity biotinylation, streptavidin recovery, MS, SAINT express (FIG. 2B). How it is done:
RNF213-interacting proteins were identified to evaluate how RNF213 regulates hypoxia sensitivity (FIG. 2A). TurboID-RNF213 (“N-Turbo”), RNF213-TurboID (“C-Turbo”), or TurboID alone (Control Turbo) were recombined into HeLa FlpIn-TRex RNF213-KO cells. These cells were labelled with biotin for 10 min., and biotinylated proteins were recovered on streptavidin, digested with trypsin, and analyzed by MS (FIG. 2A). Proteins were ranked as potential binding partners by using the SAINT express algorithm³⁶ Immunoblotting (FIG. 9A) and silver staining (FIG. 9B) confirmed that similar amounts of each sample were submitted for analysis. Relatively few proteins labelled by N-Turbo were labelled to an extent greater than their labeling by Control-Turbo (FIG. 9C). […] Among the other top candidates were the major K63-deubiquitinase and NF-κB regulator CYLD and its interacting protein SPATA2 (FIG. 2B, orange-colored arrows). […] Other top C-Turbo interactors included proteins involved in VEGF signaling, which is induced in hypoxia (FLII, MYOF^{39,40}), inflammation and atherosclerosis (MAP4K4, SPTLC1^{41,42}), lipotoxicity (SPTLC1, ALDH1B1^{43,44}), ischemia response (CPEB4⁴⁵), and stroke (SARS2⁴⁶). Top N-Turbo interactors included CYP51A1, which plays a crucial role in cholesterol metabolism and atherosclerosis⁴⁷.
Cells were cultured in standard media but with 10% tetracycline (Tet)-free FBS (Clonetech) for at least 1 week. Tet-free/biotin-free FBS was generated by incubating Tet-free FBS with sterile streptavidin beads overnight followed by centrifugation to remove the beads. N-Turbo, C-Turbo, and Turbo proteins were induced by adding 1 μg/ml Dox to cells for 36 hours. For the last ten min. of incubation, 500 μM of biotin was added to the medium.

A further assay concerns the target T2, TurboID-RNF213 (Homo sapiens (Human), UniProt Q63HN8 1-5207).
T2 construct: Recombined into HeLa FlpIn-TRex RNF213-KO cells; proximity-labelling bait; also called N-Turbo; not shown: TurboID biotin ligase at the N-terminus
Kind of assay: TurboID proximity biotinylation, streptavidin recovery, MS, SAINT express (FIG. 9C). On the procedure:
RNF213-interacting proteins were identified to evaluate how RNF213 regulates hypoxia sensitivity (FIG. 2A). TurboID-RNF213 (“N-Turbo”), RNF213-TurboID (“C-Turbo”), or TurboID alone (Control Turbo) were recombined into HeLa FlpIn-TRex RNF213-KO cells. These cells were labelled with biotin for 10 min., and biotinylated proteins were recovered on streptavidin, digested with trypsin, and analyzed by MS (FIG. 2A). Proteins were ranked as potential binding partners by using the SAINT express algorithm³⁶ Immunoblotting (FIG. 9A) and silver staining (FIG. 9B) confirmed that similar amounts of each sample were submitted for analysis. Relatively few proteins labelled by N-Turbo were labelled to an extent greater than their labeling by Control-Turbo (FIG. 9C). […] Among the other top candidates were the major K63-deubiquitinase and NF-κB regulator CYLD and its interacting protein SPATA2 (FIG. 2B, orange-colored arrows). […] Other top C-Turbo interactors included proteins involved in VEGF signaling, which is induced in hypoxia (FLII, MYOF^{39,40}), inflammation and atherosclerosis (MAP4K4, SPTLC1^{41,42}), lipotoxicity (SPTLC1, ALDH1B1^{43,44}), ischemia response (CPEB4⁴⁵), and stroke (SARS2⁴⁶). Top N-Turbo interactors included CYP51A1, which plays a crucial role in cholesterol metabolism and atherosclerosis⁴⁷. […]

In a further assay the target is T3, 3×-FLAG-RNF213 (Homo sapiens (Human), UniProt Q63HN8 1-5207, phosphotyrosine at Y1275 (found by MS in cells; phosphorylated by ABL1 in vitro)).
T3 construct: Expressed from pcDNA5-3x-FLAG-RNF213; also called WT-RNF213; wild type RNF213; not shown: 3×-FLAG tag
Kind of assay: co-immunoprecipitation/immunoblot (FIG. 2D).

T1 sequence (Q63HN8 whole entry N1045D): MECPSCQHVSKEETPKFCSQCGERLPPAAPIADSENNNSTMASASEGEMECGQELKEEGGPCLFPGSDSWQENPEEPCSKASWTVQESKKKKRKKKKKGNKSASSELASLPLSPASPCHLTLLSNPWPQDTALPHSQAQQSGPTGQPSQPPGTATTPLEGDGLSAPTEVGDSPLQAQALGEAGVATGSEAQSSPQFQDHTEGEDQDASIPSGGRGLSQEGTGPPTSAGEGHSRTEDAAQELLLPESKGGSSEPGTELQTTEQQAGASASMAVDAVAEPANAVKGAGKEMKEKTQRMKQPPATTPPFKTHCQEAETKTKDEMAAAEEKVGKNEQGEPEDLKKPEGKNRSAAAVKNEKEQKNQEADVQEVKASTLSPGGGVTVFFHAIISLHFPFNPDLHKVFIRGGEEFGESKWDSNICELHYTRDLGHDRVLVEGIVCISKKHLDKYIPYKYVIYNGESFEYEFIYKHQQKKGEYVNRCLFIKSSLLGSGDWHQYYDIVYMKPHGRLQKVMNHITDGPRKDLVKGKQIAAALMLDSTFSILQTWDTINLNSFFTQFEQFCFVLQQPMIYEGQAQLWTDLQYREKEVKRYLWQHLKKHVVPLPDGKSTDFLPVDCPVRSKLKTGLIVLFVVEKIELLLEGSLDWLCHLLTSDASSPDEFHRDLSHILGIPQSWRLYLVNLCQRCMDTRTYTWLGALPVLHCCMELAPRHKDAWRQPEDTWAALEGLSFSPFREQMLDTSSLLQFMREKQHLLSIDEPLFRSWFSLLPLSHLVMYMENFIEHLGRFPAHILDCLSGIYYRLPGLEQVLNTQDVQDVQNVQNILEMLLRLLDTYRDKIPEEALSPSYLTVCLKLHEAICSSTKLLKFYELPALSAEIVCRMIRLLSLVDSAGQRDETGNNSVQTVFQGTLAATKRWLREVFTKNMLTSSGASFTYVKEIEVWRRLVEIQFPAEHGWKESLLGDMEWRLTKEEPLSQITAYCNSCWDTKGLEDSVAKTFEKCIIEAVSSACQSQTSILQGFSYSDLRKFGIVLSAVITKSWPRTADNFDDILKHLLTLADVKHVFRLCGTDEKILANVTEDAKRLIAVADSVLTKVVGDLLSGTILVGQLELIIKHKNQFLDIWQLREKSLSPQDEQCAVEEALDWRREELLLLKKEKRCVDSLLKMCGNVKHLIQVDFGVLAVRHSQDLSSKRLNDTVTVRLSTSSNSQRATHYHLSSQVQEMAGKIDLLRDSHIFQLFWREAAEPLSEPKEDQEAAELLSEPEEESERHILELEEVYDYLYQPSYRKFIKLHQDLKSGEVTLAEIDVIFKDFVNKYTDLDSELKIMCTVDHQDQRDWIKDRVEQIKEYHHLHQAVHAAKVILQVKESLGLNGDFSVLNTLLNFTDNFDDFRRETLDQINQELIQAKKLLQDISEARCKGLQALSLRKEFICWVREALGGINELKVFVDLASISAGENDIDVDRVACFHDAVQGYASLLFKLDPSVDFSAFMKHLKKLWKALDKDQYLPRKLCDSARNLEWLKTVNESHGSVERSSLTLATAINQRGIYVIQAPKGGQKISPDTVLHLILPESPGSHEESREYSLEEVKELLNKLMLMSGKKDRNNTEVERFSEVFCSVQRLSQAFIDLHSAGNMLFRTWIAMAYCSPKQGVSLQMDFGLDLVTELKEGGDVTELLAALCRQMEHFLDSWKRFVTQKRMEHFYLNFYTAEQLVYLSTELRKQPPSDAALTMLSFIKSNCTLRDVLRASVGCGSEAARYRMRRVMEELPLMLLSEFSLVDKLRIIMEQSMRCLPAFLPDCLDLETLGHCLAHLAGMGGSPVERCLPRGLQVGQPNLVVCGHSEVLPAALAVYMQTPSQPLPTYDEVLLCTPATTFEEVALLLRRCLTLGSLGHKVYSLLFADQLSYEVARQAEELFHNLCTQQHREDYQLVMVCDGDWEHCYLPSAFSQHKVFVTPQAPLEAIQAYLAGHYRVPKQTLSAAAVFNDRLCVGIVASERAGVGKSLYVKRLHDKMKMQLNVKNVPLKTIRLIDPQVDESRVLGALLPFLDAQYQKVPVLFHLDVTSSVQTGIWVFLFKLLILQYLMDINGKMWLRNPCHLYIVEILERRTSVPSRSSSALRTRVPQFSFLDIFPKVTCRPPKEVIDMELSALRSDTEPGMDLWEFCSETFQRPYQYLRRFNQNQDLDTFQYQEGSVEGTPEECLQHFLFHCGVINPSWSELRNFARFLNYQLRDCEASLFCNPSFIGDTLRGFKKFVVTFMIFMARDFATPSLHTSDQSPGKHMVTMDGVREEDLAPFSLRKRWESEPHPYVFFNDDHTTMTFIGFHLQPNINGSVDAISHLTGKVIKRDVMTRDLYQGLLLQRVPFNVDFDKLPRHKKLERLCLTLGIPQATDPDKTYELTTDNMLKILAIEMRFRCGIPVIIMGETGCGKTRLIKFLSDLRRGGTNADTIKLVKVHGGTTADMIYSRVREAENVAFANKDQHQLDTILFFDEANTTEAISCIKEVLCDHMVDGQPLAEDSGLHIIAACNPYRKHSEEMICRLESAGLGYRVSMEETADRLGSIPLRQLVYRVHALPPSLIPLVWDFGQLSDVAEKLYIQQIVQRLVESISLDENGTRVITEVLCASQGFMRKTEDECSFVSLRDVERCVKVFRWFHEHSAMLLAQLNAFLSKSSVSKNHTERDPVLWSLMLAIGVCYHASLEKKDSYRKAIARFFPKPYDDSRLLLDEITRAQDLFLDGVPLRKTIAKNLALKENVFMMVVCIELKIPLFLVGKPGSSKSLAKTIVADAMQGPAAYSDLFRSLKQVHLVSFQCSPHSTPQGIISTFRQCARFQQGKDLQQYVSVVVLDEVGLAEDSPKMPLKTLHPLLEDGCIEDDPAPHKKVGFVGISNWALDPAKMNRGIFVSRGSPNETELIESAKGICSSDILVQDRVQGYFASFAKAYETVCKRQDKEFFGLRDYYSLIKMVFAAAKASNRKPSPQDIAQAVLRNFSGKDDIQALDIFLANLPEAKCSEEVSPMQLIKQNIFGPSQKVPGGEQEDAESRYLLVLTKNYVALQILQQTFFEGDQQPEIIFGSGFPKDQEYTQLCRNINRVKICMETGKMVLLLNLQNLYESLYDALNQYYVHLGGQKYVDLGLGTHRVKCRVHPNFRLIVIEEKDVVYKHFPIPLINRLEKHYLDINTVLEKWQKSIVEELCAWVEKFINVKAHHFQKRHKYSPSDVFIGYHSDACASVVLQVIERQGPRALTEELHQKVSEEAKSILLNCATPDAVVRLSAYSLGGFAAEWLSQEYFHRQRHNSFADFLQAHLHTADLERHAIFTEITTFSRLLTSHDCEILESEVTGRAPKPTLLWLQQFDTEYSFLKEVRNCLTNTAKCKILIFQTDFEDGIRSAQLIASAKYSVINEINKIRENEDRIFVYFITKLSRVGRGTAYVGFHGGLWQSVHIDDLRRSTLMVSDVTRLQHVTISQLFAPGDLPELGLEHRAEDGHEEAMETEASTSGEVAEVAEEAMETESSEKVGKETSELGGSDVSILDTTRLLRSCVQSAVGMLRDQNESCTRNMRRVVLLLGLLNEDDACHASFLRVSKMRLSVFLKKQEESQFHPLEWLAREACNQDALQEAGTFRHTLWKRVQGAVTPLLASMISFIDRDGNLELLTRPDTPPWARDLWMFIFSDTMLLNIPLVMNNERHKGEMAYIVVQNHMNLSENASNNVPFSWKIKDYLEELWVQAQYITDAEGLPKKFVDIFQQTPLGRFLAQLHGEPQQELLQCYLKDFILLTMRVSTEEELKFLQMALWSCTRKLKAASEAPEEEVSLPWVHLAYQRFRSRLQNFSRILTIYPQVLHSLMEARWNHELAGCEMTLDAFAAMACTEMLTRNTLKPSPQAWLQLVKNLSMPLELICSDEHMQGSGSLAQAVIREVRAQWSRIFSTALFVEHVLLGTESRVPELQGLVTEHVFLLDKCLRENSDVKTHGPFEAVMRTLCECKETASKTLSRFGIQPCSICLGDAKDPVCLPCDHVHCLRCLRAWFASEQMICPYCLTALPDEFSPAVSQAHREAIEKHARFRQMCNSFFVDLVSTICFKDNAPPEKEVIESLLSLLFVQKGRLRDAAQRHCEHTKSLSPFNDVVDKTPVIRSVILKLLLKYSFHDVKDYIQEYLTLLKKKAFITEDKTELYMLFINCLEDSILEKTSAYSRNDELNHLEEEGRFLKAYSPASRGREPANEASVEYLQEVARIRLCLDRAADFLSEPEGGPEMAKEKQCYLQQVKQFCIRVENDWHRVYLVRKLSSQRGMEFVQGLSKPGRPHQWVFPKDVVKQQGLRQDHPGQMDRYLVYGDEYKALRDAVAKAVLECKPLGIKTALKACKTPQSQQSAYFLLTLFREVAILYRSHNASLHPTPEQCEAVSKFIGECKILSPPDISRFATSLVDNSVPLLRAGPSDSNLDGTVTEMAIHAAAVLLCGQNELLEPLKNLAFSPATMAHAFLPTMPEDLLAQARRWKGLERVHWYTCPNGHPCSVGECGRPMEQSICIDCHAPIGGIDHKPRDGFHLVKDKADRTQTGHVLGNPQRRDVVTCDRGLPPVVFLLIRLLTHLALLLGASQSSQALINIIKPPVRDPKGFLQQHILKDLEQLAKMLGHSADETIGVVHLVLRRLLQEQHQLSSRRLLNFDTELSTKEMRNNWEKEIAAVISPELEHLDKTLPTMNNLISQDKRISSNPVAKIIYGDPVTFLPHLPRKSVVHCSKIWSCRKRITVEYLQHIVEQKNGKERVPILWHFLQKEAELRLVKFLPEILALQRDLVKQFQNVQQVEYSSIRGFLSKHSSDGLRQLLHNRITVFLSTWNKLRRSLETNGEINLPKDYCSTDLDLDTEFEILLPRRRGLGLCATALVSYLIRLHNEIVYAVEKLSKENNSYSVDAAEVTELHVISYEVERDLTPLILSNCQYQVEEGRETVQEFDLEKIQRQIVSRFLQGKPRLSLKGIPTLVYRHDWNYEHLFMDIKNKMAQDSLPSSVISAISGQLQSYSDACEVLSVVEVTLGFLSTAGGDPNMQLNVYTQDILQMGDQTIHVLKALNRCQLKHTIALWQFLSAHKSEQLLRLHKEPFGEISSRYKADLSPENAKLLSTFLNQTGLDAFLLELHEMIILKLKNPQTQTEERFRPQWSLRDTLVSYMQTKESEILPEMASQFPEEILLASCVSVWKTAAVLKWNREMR

B1: PTP1B (PTPN1) (enzyme, Homo sapiens, UniProt P18031 1-435, looked up)
chain: MEMEKEFEQIDKSGSWAAIYQDIRHEASDFPCRVAKLPKNKNRNRYRDVSPFDHSRIKLHQEDNDYINASLIKMEEAQRSYILTQGPLPNTCGHFWEMVWEQKSRGVVMLNRVMEKGSLKCAQYWPQKEEKEMIFEDTNLKLTLISEDIKSYYTVRQLELENLTTQETREILHFHYTTWPDFGVPESPASFLNFLFKVRESGSLSPEHGPVVVHCSAGIGRSGTFCLADTCLLLMDKRKDPSSVDIKKVLLEMRKFRMGLIQTADQLRFSYLAVIEGAKFIMGDSSVQDQWKELSHEDLEPPPEHIPPPPRPPKRILEPHNGKCREFFPNHQWVKEETQEDKDCPIKEEKGSPLNAAPYGIESMSQDTEVRSRVVGGSLRGAQAASPAKGEPSLPEKDEDHALSYWKPFLVNMCVATVLTAGAYLCYRFLFNSNT
notes: Endogenous protein in cell lysates; also called Tyrosine-protein phosphatase non-receptor type 1
As for B1, the binding result with RNF213-TurboID is listed as “binds”.

B2: USP15 (enzyme, human, UniProt Q9Y4E8 2-981, looked up)
chain: AEGGAADLDTQRSDIATLLKTSLRKGDTWYLVDSRWFKQWKKYVGFDSWDKYQMGDQNVYPGPIDNSGLLKDGDAQSLKEHLIDELDYILLPTEGWNKLVSWYTLMEGQEPIARKVVEQGMFVKHCKVEVYLTELKLCENGNMNNVVTRRFSKADTIDTIEKEIRKIFSIPDEKETRLWNKYMSNTFEPLNKPDSTIQDAGLYQGQVLVIEQKNEDGTWPRGPSTPKSPGASNFSTLPKISPSSLSNNYNNMNNRNVKNSNYCLPSYTAYKNYDYSEPGRNNEQPGLCGLSNLGNTCFMNSAIQCLSNTPPLTEYFLNDKYQEELNFDNPLGMRGEIAKSYAELIKQMWSGKFSYVTPRAFKTQVGRFAPQFSGYQQQDCQELLAFLLDGLHEDLNRIRKKPYIQLKDADGRPDKVVAEEAWENHLKRNDSIIVDIFHGLFKSTLVCPECAKISVTFDPFCYLTLPLPMKKERTLEVYLVRMDPLTKPMQYKVVVPKIGNILDLCTALSALSGIPADKMIVTDIYNHRFHRIFAMDENLSSIMERDDIYVFEININRTEDTEHVIIPVCLREKFRHSSYTHHTGSSLFGQPFLMAVPRNNTEDKLYNLLLLRMCRYVKISTETEETEGSLHCCKDQNINGNGPNGIHEEGSPSEMETDEPDDESSQDQELPSENENSQSEDSVGGDNDSENGLCTEDTCKGQLTGHKKRLFTFQFNNLGNTDINYIKDDTRHIRFDDRQLRLDERSFLALDWDPDLKKRYFDENAAEDFEKHESVEYKPPKKPFVKLKDCIELFTTKEKLGAEDPWYCPNCKEHQQATKKLDLWSLPPVLVVHLKRFSYSRYMRDKLDTLVDFPINDLDMSEFLINPNAGPCRYNLIAVSNHYGGMGGGHYTAFAKNKDDGKWYYFDDSSVSTASEDQIVSKAAYVLFYQRQDTFSGTGFFPLDRETKGASAATGIPLESDEDSNDNDNDIENENCMHTN
notes: Endogenous protein
Regarding B2, in the assay with RNF213-TurboID, the binding result is on record as “binds”.

B3: CYP51A1 (enzyme, Homo sapiens, UniProt Q16850-2 1-404, looked up)
chain: MVGKTFTYLLGSDAAALLFNSKNEDLNAEDVYSRLTTPVFGKGVAYDVPNPVFLEQKKMLKSGLNIAHFKQHVSIIEKETKEYFESWGESGEKNVFEALSELIILTASHCLHGKEIRSQLNEKVAQLYADLDGGFSHAAWLLPGWLPLPSFRRRDRAHREIKDIFYKAIQKRRQSQEKIDDILQTLLDATYKDGRPLTDDEVAGMLIGLLLAGQHTSSTTSAWMGFFLARDKTLQKKCYLEQKTVCGENLPPLTYDQLKDLNLLDRCIKETLRLRPPIMIMMRMARTPQTVAGYTIPPGHQVCVSPTVNQRLKDSWVERLDFNPDRYLQDNPASGEKFAYVPFGAGRHRCIGENFAYVQIKTIWSTMLRLYEFDLIDGYFPTVNYTTMIHTPENPVIRYKRRSK
notes: Endogenous protein found by proximity labelling/MS; also called Lanosterol 14-alpha demethylase
As for B3, in the assay with TurboID-RNF213, the binding result is on record as “binds”.

B4: CYLD (enzyme, Homo sapiens, UniProt Q9NQC7-2 1-953, looked up)
chain: MSSGLWSQEKVTSPYWEERIFYLLLQECSVTDKQTQKLLKVPKGSIGQYIQDRSVGHSRIPSAKGKKNQIGLKILEQPHAVLFVDEKDVVEINEKFTELLLAITNCEERFSLFKNRNRLSKGLQIDVGCPVKVQLRSGEEKFPGVVRFRGPLLAERTVSGIFFGVELLEEGRGQGFTDGVYQGKQLFQCDEDCGVFVALDKLELIEDDDTALESDYAGPGDTMQVELPPLEINSRVSLKVGETIESGTVIFCDVLPGKESLGYFVGVDMDNPIGNWDGRFDGVQLCSFACVESTILLHINDIIPESVTQERRPPKLAFMSRGVGDKGSSSHNKPKATGSTSDPGNRNRSELFYTLNGSSVDSQPQSKSKNTWYIDEVAEDPAKSLTEISTDFDRSSPPLQPPPVNSLTTENRFHSLPFSLTKMPNTNGSIGHSPLSLSAQSVMEELNTAPVQESPPLAMPPGNSHGLEVGSLAEVKENPPFYGVIRWIGQPPGLNEVLAGLELEDECAGCTDGTFRGTRYFTCALKKALFVKLKSCRPDSRFASLQPVSNQIERCNSLAFGGYLSEVVEENTPPKMEKEGLEIMIGKKKGIQGHYNSCYLDSTLFCLFAFSSVLDTVLLRPKEKNDVEYYSETQELLRTEIVNPLRIYGYVCATKIMKLRKILEKVEAASGFTSEEKDPEEFLNILFHHILRVEPLLKIRSAGQKVQDCYFYQIFMEKNEKVGVPTIQQLLEWSFINSNLKFAEAPSCLIIQMPRFGKDFKLFKKIFPSLELNITDLLEDTPRQCRICGGLAMYECRECYDDPDISAGKIKQFCKTCNTQVHLHPKRLNHKYNPVSLPKDLPDWDWRHGCIPCQNMELFAVLCIETSHYVAFVKYGKDDSAWLFFDSMADRDGGQNGFNIPQVTPCPEVGEYLKMSLEDLHSLDSRRIQGCARRLLCDAYMCMYQSPTMSLYK
notes: Endogenous protein in cell lysates; the isoform is the one matched by MS; also called Ubiquitin carboxyl-terminal hydrolase CYLD
Turning to B4, the binding result with 3×-FLAG-RNF213 and with RNF213-TurboID was “binds” in each case.

B5: SPATA2 (other, human, UniProt Q9UM82 1-520, looked up)
chain: MGKPSSMDTKFKDDLFRKYVQFHESKVDTTTSRQRPGSDECLRVAASTLLSLHKVDPFYRFRLIQFYEVVESSLRSLSSSSLRALHGAFSMLETVGINLFLYPWKKEFRSIKTYTGPFVYYVKSTLLEEDIRAILSCMGYTPELGTAYKLRELVETLQVKMVSFELFLAKVECEQMLEIHSQVKDKGYSELDIVSERKSSAEDVRGCSDALRRRAEGREHLTASMSRVALQKSASERAAKDYYKPRVTKPSRSVDAYDSYWESRKPPLKASLSLRKEPVATDVGDDLKDEIIRPSPSLLTMASSPHGSPDVLPPASPSNGPALLRGTYFSTQDDVDLYTDSEPRATYRRQDALRPDVWLLRNDAHSLYHKRSPPAKESALSKCQSCGLSCSSSLCQRCDSLLTCPPASKPSAFPSKASTHDSLAHGASLREKYPGQTQGLDRLPHLHSKSKPSTTPTSRCGFCNRPGATNTCTQCSKVSCDACLSAYHYDPCYKKSELHKFMPNNQLNYKSTQLSHLVYR
notes: Endogenous protein in cell lysates
B5: the binding result with 3×-FLAG-RNF213 and with RNF213-TurboID was “binds” in each case.
